Target: the molecule itself
Experiment: electron microscopy

B1: FliP (natural protein, Salmonella enterica serovar Typhimurium)
chain: QLPGLISQPLAGGGQSWSLSVQTLVFITSLTFLPAILLMMTSFTRIIIVFGLLRNALGTPSAPPNQVLLGLALFLTFFIMSPVIDKIYVDAYQPFSEQKISMQEALDKGAQPLRAFMLRQTREADLALFARLANSGPLQGPEAVPMRILLPAYVTSELKTAFQIGFTIFIPFLIIDLVIASVLMALGMMMVPPATIALPFKLMLFVLVDGWQLLMGSLAQSFYS
binding result: binds

— doi:10.1101/2020.11.25.397760 (bioRxiv, 2020)
